According to a protein production outcome set (Wang et al. 2014):

Experiment: label from the status in PepcDB records
For “KMLMPIEFELVESAPLFHELLHLRDAVGLPSIGVDMADGHPLQPLYWVSIHLTAKQDKNTATIVATACVYGDNANHFAIEDFIVLPEYRHIGLGKIILERVMAFVDDRATLGTYVSINTHGEQEKLCTDYGFAHSH”, the protein production was “failed”.
For “KNVNRVLSAEALKPGMLLTGTVSSLEDHGYLVDIGVDGTRAFLPLLKAQEYIRQKNKGAKLKVGQYLNCIVEKVKGNGGVVSLSVGHSEVSTAIATEQQSWNLNNL”, the protein production was “not failed”.
In the case of “KQKRMQAMIVTNHPEKVIEKIHKKLHRGATMIHDAEGTYNHERKAVLITVITRAEFNEFKQIMTQVDPSSFVSVSENVHILGRFVEIDN”, the protein production is reported as “failed”.
In the case of “KQVAEIGDRAVELVHDGSLLAPEDMGPYVAPIAFNALPFAGNLVEDGTEETDEEQKLRNESRKILGLPDLKVAGTCVRVPVFTGHTMVVHAEFNNAITPEQAREVLGNAAGVDVVDVPTPLAAAGVDNSLVGRIRQDQTVDDNKGLVFVVSGDNLRKGAALNAIQIAELLV”, the protein production is reported as “failed”.
In the case of “KRASSKWLVCIGTSPSSAKLIRWTARTAEAFRAPWTALYIENEENDYMTKAEKKCLRETMELAERLGAEIVTLAGHDIAETVAEYARLTGVTNIVVGKSRRRMGLRSLFEEDFEDRLITHLDNVDMHIIP”, the protein production is reported as “failed”.
For “KRGRSVLVLDHAKKPGRKILISGGGRCNFTNYDVSASNYLCQNPHFVKSALSQYTNWDFISMVSKHGIEFEERDHGQLFCVDAFTAKDIVKMLLAECDMPNIQQRYQCDVHTIEKTEEGFRLHAGTEPVECESLVVATGGLSMPKLGATPFGYKVAEQ”, the protein production was “failed”.
With “KRKTKEQLAILKSFFLQCQWARREDYQKLEQITGLPRPEIIQWFGDTRYALKHGQLKWFRDNA” the protein production was “not failed”.
In the case of “KRRMELVGEYAGGITLIEDFAHHPTAIRLTLGAIAEHYPGRRIIACFEPRSNTTSRNIFQHELSECFGDAAIVVLGKVNRPERYAPEERLDAALLCRELKANGKRVFAAGSENYPEDIVRFIEAEQQPGDVVVLLSNGSFSGLKEMLAESFQKNS”, the protein production is reported as “failed”.
In the case of “KTFMIGVTSCISGDGKSFCSHNLARIYAISGKKTLLIRGDMRKAFNAPANLIPQGSMGLSQHLIGMATIDQIIHKGEIENLYQIIPGPVPPNASELVASQKMEEFIRIMKDKFEVVIMDSPPVGLVSDYMSVIKHIDANLYIVRYDYTPKETLEAIKDLKNKYPAQSHSIIFNGIT”, the protein production is reported as “failed”.
In the case of “KVILYARVSSSTQKDELVNQVKYLEEQVKEYDLVITDIGSGLNMKRKGFLKLLRMILNNEVSRVVVAYPDRLVRVGFEILEEVCKAHNCEIVVLNQEDKEEELVEDLMSALVSFSGKLYGMRSHEYEKVKKCAEELKNWKI”, the protein production is reported as “not failed”.
For “KVVKFSYMWTINNFSFCREEMGEVIKSSTFSSGANDKLKWCLRVNPKGLDEESKDYLSLYLLLVSCPKSEVRAKFKFSILNAKGEETKAMESQRAYRFVQGKDWGFKKFIRRDFLLDEANGLLPDDKLTLFCEVSVVQDSVNISGQ”, the protein production was “not failed”.
In the case of “KVWKPGDECFALYWEDNKFYRAEVEALHSSGMTAVVKFTDYGNYEEVLLSNIKPVQTEAWVRDPN”, the protein production is reported as “not failed”.
With “LAALCPVAVPSGVQIYTIDGPLFFGAAATFERTLAGLHDQAEAVIFRLGRVPFADATAMHALDDVVRHFRQRHIEVRVCEANPRVAHKLREFGLLARIGQQDASISVLDALAELAPQPGTQVQAEAS” the protein production was “failed”.
For “LAKILGMDSDGLNRLECFDISHTQGEATIASCVVYDEQNIQPSQYRRYNITTAKPGDDYAAMREVLTRRYGKMQEAEANGETVKWPDAVLIDGGKGQIGVAVSVWEELGLHIPLVGIAKGPERKAGMEELILPFTGEVFRLPPNSPALHLLQTVRDESHRFAI”, the protein production was “failed”.
With “LAVIVVLGCFALGLGGIIGFVHKGEDYQAYQKLQWHTLAPEKIAPLVAQGYTVFVDITSDWCSICQTNKAEVTHREQVVNALMADDIILMQGNWSEADNTIAGYMQYEGIPGTPYNKIYGPRNPNGIVLPSKLTIEAVINGLAQA” the protein production was “failed”.
With “LAYEELRQREAQTAMQLAVNNALLTIKDRSRMLLAVCEQIDKLVPCTFLGIRVMDRDGNFRIFDNFMRETPSGFFPVSAHEKLDVPDFAEMARESFSLITSPGCFSGEAFQLLCDKYRLVGLVREKFNICSLISVRLWDLPGSCAGLIISDTSRAFDEHDQETVGLIVPQLSLALQNYLAFEEIDKLRRKLEGEKAYLFEEIKATHD” the protein production was “failed”.
With “LDLMKEKNLIQKFFKELIKDDGGLSAYGEAQVMKYLEMGAIDTLIVTEDIGITRVTVKCNNCDYAQEVNVKTNEMFKFEEQLKTKACPTCGGAMYIDEEKDIIEHLSDLCHMHNTDIIVVSTDTEEGSQISRAFKGMAAILRYKL” the protein production was “not failed”.
In the case of “LDNRFNYINVPGLGGSGEHHWQTFWEQAYPEIHRVQQADWDHPICSVWVNKLQLITETCSDKPVVLIAHSLGCVTVLHAVAQRKLKGIAGAFLVAMPDAERADFPKECIGFIPVPRIVLPFPAVMIASENDPYITSPELKKWADVIQASFVSVGQRGHIGTAAQLTYWEEGQQLFRSFVEQL”, the protein production is reported as “failed”.
In the case of “LENCVFCKIIKRELPSTIYYEDERVIAIKDINPAAPVHVLIIPKEHIANVKEINESNAQILIDIHKAANKVAEDLGIAEKGYRLITNCGVAAGQTVFHLHYHLLGGVDMGPKIL”, the protein production is reported as “not failed”.
For “LEYQKSQPPQPGDKFVSVVSQFITVASFSFSDVEDLLAEAKDLFTKAVKHFGEEAGKIQPDEFFGI”, the protein production was “failed”.
With “LFSSRDILEVLQDIHMETGETVAIATKNDIYLQYIQIIESVHALRFHVDENAIRPLTMSSNGWMLMSTMNDKAIDNTVRRANTITQKDGIRFEVDDMMARIRQVREQGYASAEHIPFVGGGTICVLLPMTIQGQPVTMGLGGALDRIKQNYDRYLELLLNGVQQLKKSDSFHQPI” the protein production was “not failed”.
With “LGTVIQENSRSGGEQSANFFVNGPLAENLLLQVYGQYTAREEDDIDYGYEDKDMQSISSKLIYQINDRHSVQLEGGTSAQSRRGNVGLSVPTTGCRRGCEDSLNEYRRNYVTLSHTGEWELLGNSDTYLQREESENKSREMTIVNTTFKSSLVKGLGAHTLTTGVDATHAELEDFTSNKASSKTKASNTQWAVFIEDEWKIAEPFSLTLGGRLDHDENYGAHFSPRVYGVWRVAPAWTVKGGVATGFRSPQLREITPGWAQVSGGGNIYGNPDLDPETSLNKEISVLYQGDSGLDVTLTAFHNEFKDKITRVVCPDTICTDGPNQWGADPTYRINVDEAVTQGVEATLAKPLTETIYLSSSYTFTDSEQKTGEYKGMPLQQLPKHLFNVDVTWQTTDNLESWTKVTYRGKEMDPVTGPSRNSIVEPAYTFVDAGVTYQLTDNTKIKGAIYNLFDEDINYKEYGYVEDGRRYWLGLDVAF” the protein production was “failed”.
With “LIKRMNAEELLHEKIEFNDLLLRSVENPIFWRDSRGFLIDCNAQFTRLLGISKDRLVGRSVYDICGDLHTPVLEGLLTKVLQGEGEQYDIDFKNHEGETLSFLVQASEYHDKSEKVAGVVTILFDMT” the protein production was “failed”.
In the case of “LKDVLNILLMDEISKLKDFLSNLDYIKPKVNIEEEIIEIRKEDIINALKLFKGKYEIEVDKIPKAVYVYLVKKNILFLYPQRGTLKPQSFLVWNAIKRVL”, the protein production is reported as “not failed”.
For “LKKLPAEIYLIDEQAKTSVQDFEYASYYHSSATVNTGTFNECRSADLVLFFQEEMSNESFSNEDNLALIKEKVKKMMATGFQGIVLVATAESNIVASLIKHFSGLPANQIITPG”, the protein production was “failed”.
For “LKVMLRPILPEDEPKHLAFDNSLSDEDRYKRYFGVRSKMTHEEMAVLTQIDYAREMAFIATAKGPDGDDITLGAVRASIDPDNTEAEFAMAVRGDHQGIGLGKLLLEKLIKYYQANDTPVLTGFTMFENRNMASLAKNLGFKVTFDME”, the protein production was “failed”.
For “LKYMYKIDDDKKYILYCPTWRGNQRKEVTQINLKDLLKYLPENYEIIVKLHPNESHLRTRYNQIDNRIHCYFNELVDIQELYILSECMITDYSSTIFDYIHLNKPVFILQEDEQQYKQSVGFYFDLFEVGDFLKASLNERMLAKQICSTDYINYSKVVHRLMKQDSSKSSEKLMAEILG”, the protein production was “failed”.
